From patent US20200377556A1 (ABERA BIOSCIENCE, published 2020) come the findings set out here.

The target of assay [1] is T1, HbpD(Δd1)-SpT (Escherichia coli, UniProt O88093 53-1377).
T1 construct: also called HbpD(Δd1)-SpyTag; Hbp(Δd1)-SpT
Description: covalent Spy-ligation to S. Typhimurium cells, SDS-PAGE/Coomassie.

Assay [2] concerns the target T1, HbpD(Δd1)-SpT. Description: SDS-PAGE/Coomassie of S. Typhimurium cells displaying HbpD(Δd1)-SpT incubated with GFPnb-SpC EQ.

B1: GFPnanobody-SpyCatcher (VHH)
VHH: QLVESGGALVQPGGSLRLSCAASGFPVNRYSMRWYRQAPGKEREWVAGMSSAGDRSSYEDSVKGRFTISRDDARNTVYLQMNSLKPEDTAVYYCNVNVGFEYWGQGTQVTVSS
notes: also called GFPnb-SpC; GFPnanobody-SpC
For B1, in the assay with HbpD(Δd1)-SpT [1], the binding result is “binds”.

B2: GFPnanobody-SpC_EQ (VHH)
VHH: B1 VHH
notes: also called GFPnb-SpC EQ; GFPnb fused to SpyCatcher E77Q mutant
As to B2, in the assay with HbpD(Δd1)-SpT [2], the binding result is “no binding (tested: 3 µM)”.
